Assay results reported in paper PMC11469336.

Molecular target: ribosomes (crude ribosome pellet)
Assay: co-sedimentation

- half-time of dissociation after harringtonine (in wild-type cells): 15 min
- half-time of dissociation after puromycin (in wild-type cells): 1 min
Substance: trimeric SEC61 complex (from UniProt P61619 1-476; P60468 1-96; P60059 1-68)
